The values that follow come from PMC8706911, “Insights into the Neutralization and DNA Binding of Toxin–Antitoxin System ParESO-CopASO by Structure-Function Studies” (Microorganisms, 2021).

Sequences and labels used below:
B1: CopASO (SO_1445), antitoxin of the ParESO-CopASO type II toxin-antitoxin system of prophage CP4So (natural protein, Shewanella oneidensis, UniProt Q8EGZ2 1-102, looked up)
chain: MSTIKPVSVKLDADIKARVEHLAETRKRSSHWMMREAIREYVEREEKREALQQEALRAWEEHQTSGLHVTGDEVVSWLESWGSENEQAALHATNSLHCHCIT
modifications: selenomethionine-substituted in the crystal
notes: CopASO (SO_1445), antitoxin of prophage CP4So, Shewanella oneidensis; called full-length in the complex; 93 residues modelled in CopASO (I), 77 in CopASO (II); also called CopASO (I); CopASO (II)

For data set [1], the system named is CopASO (Shewanella oneidensis (prophage CP4So)). In words: ITC. As to conditions: ITC: 20 mM Tris pH 8.0, 100 mM NaCl, 5% (v/v) glycerol, 20 °C; 100-400 uM DNA injected into 10-100 uM protein; one-site model.
Data set [2] deals with CopASO;ParESO (in purified ParESO-CopASO complex) (Shewanella oneidensis (prophage CP4So);Shewanella oneidensis (prophage CP4So)). The experiment in a line: ITC. As to conditions: ITC: 20 mM Tris pH 8.0, 100 mM NaCl, 5% (v/v) glycerol, 20 °C; 100-400 uM DNA injected into 10-100 uM protein; one-site model.
Data set [3] deals with the molecule itself. The experiment in a line: crystal structure; Se-Met ParESO-CopASO complex, crystallised in 20% PEG3350, 0.2 M tri-sodium citrate at 20 °C; SAD, 3.80 Å.
Data set [4] addresses B1. Described as above. As to conditions: both partners purified.

The term Kd denotes the equilibrium constant for the complex coming apart. A higher Kd goes with weaker binding. Usually stoichiometry N stands for a count of units in the complex or per binding partner.

As for “TAAGGTATTACCTAGTAGTACTAAG (double strand) [25 bp copASO-parESO promoter duplex]”, the dissociation constant (Kd) in data set [1] was 16 nM; in data set [2] it was 660 nM.
As to B1, the “stoichiometry N” value in data set [3] was 2.

B2: ParESO (SO_1444), toxin of the ParESO-CopASO type II toxin-antitoxin system of prophage CP4So (natural protein, Shewanella oneidensis)
chain: MPQIVFTATALRDLERLREFLRSKNPPAAQRAASAIINTIRKLESYPDIGRPIDDNDFSFRELLIDFGDTGYLAMYQYDGGERLTVLCIRHQKEAGY
modifications: selenomethionine-substituted in the crystal
notes: also called ParESO (I); ParESO (II)
Turning to B2, in data set [4], the binding result is on record as “binds”.
